# B1: Ts1GC2a trispecific antibody (antibody, human IgG1, kappa)
# heavy: not shown
# light: EIVLTQSPGTLSLSPGETAILSCRASQSVSSSLLAWYQQKPGQAPRLLIYGASNRATGIRGRFSGSGSGTDFTLTISRLEPEDFVLYYCQHYGSRVTFGQGTKLEIKRTVAAPSVFIFPPSDEQLKSGTASVVCLLNNFYPREAKVQWKVDNALQSGNSQESVTEQDSKDSTYSLSSTLTLSKADYEKHKVYACEVTHQGLSSPVTKSFNRGEC
# notes: Trispecific hexavalent IgG1, construct type Ts1; specificities GCE536 + GCA7 + GCB59
# B2: Bs1GC2a bispecific antibody (bispecific antibody, human IgG1, kappa)
# heavy: not shown
# light: B1 light
# notes: Bispecific tetravalent IgG1, construct type Bs1; specificities GCE536 + GCB59
# B3: Bs3GC1a bispecific antibody (bispecific antibody, human IgG1, kappa)
# heavy: not shown
# light: B1 light
# notes: Bispecific tetravalent IgG1, construct type Bs3; specificities GCE536 + GCA7
# B4: Ts3GC2d trispecific antibody (antibody, human IgG1, kappa)
# heavy: not shown
# light: B1 light
# notes: Trispecific hexavalent IgG1, construct type Ts3; specificities GCE536 + GCA7 + GCB59; also called TsGC2d; TsgC2d
# B5: Bs3GC2b bispecific antibody (bispecific antibody, human IgG1, lambda)
# heavy: not shown
# light: SYVLTQPPSVSVAPGQTASLTCGGTNIGSKSVHWYQQKAGQAPVLVVYADNDRPSGVPERFSGSNSGNTATLTISRVEAEDESDYFCQVWDGNTDHVVFGGGTKLTVLGQPKAAPSVTLFPPSSEELQANKATLVCLISDFYPGAVTVAWKADSSPVKAGVETTTPSKQSNNKYAASSYLSLTPEQWKSHRSYSCQVTHEGSTVEKTVAPTECS
# notes: Bispecific tetravalent IgG1, construct type Bs3; specificities GCE536 + GCB59
# B6: Bs3GC3b bispecific antibody (bispecific antibody, human IgG1, lambda)
# heavy: not shown
# light: B5 light
# notes: Bispecific tetravalent IgG1, construct type Bs3; specificities GCA7 + GCB59
# B7: Bs3GC4 bispecific antibody (bispecific antibody, human IgG1, kappa)
# heavy: not shown
# light: DIQMTQSPSTLSTSVGDRVTITCRASQNILNWLAWYQQKPGNAPNLLIYKASDLQSGVPSRFSGSGSGTEFTLTISSLQPDDFATYYCQHYNSYPLTFGGGTKVEIKRTVAAPSVFIFPPSDEQLKSGTASVVCLLNNFYPREAKVQWKVDNALQSGNSQESVTEQDSKDSTYSLSSTLTLSKADYEKHKVYACEVTHQGLSSPVTKSFNRGEC
# notes: Bispecific tetravalent IgG1, construct type Bs3; specificities GCA21 + GCE536; also called BsGC4
# B8: Bs3GC5 bispecific antibody (bispecific antibody, human IgG1, kappa)
# heavy: not shown
# light: B7 light
# notes: Bispecific tetravalent IgG1, construct type Bs3; specificities GCA21 + GCA7
# Target: T1, FcγRIIb (UniProt P31994 43-310, limits assumed)
# T1 construct: whole, on cells; also called FcgRIIb; Fcγ receptor IIb
# T1 sequence (looked up): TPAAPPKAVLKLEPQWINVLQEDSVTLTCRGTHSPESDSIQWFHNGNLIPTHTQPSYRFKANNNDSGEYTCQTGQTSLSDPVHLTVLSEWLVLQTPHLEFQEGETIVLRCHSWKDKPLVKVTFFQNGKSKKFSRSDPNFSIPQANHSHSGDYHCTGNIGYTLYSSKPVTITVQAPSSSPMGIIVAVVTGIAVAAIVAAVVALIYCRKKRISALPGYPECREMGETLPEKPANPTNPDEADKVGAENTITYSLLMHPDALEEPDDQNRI
# Assay: flow cytometry, TZM-bl cells expressing FcγRIIb, immune complex with high GM-CSF
# Method: (§1) Expression of specific FcγRs was assessed by staining TZM-b1 cells with FITC-conjugated anti-CD64 (anti-FcγRI), anti-CD32 (anti-FcγRIIa and anti-FcγRIIb) and anti-CD16 (anti-FcγRIIIa) antibodies (all from BD Pharmingen). Untrasfected and transfected TZM-b1 cells were washed with staining buffer (PBS with 10% Fetal Bovine Serum and 2 mM EDTA) and seeded in 96-well-plates at a density of 50,000 cells per well. […] The LALA versions of all antibodies and a mAb with a different specificity were included as controls. Samples were incubated at 37° C. for 30 min to allow the formation of immune complexes and then cooled down to 4° C. before adding them to TZM-b1 cells for 30 min. Cells were washed twice and stained with anti-human IgG Fcγ fragment specific F(ab′)2 fragment (Jackson ImmunoResearch). Samples were analyzed on BD FACSCanto (BD Biosciences) and median intensity fluorescence was analyzed and compared between samples.
# (§2) To address the engagement of Fcγ receptors, immune complexes formed between GM-CSF and multispecific antibodies were tested for their capacity to bind to TZM-b1 cells expressing FcγRIIa and FcγRIIb receptors. Multispecific antibodies were mixed with 0.05 μg/ml of GM-CSF, or staining buffer. Samples were incubated at 37° C. for 30 min to allow the formation of immune complexes and then cooled down to 4° C. before adding them to TZM-b1 cells for 30 minutes. Cells were washed twice and stained with anti-human IgG Fcγ fragment specific F(ab′)2 fragment. Samples were analyzed on BD FACSCanto (BD Biosciences) and median intensity fluorescence was analyzed and compared between samples.
row,Binder,MFI
1,B1,397000 MFI
2,B2,1.44e+06 MFI
3,B3,510000 MFI
4,B4,652000 MFI
5,B5,1.3e+06 MFI
6,B6,433000 MFI
7,B7,62600 MFI
8,B8,1.58e+06 MFI

# Target: T2, FcγRIIa (UniProt P12318 34-317, limits assumed)
# T2 construct: whole, on cells; also called FcgRIIa; Fcγ receptor IIa
# T2 sequence (looked up): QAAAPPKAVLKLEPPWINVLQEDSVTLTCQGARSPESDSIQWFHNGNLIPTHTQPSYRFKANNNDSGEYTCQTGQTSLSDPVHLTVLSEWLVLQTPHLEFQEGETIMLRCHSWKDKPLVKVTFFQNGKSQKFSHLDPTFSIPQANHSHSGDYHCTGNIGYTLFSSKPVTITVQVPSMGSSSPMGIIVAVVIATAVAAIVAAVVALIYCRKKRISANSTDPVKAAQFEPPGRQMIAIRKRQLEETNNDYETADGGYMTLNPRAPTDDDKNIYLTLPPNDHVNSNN
# Assay: flow cytometry, TZM-bl cells expressing FcγRIIa, mAb alone (w/o GM-CSF)
# Method: as §1, §2
row,Binder,MFI
1,B1,2850 MFI
2,B2,662 MFI
3,B3,687 MFI
4,B4,1310 MFI
5,B5,6910 MFI
6,B6,650 MFI
7,B7,6730 MFI
8,B8,1100 MFI

# Target: T1, FcγRIIb
# Assay: flow cytometry, TZM-bl cells expressing FcγRIIb, mAb alone (w/o GM-CSF)
# Method: as §1, §2
row,Binder,MFI
1,B1,67200 MFI
2,B2,11800 MFI
3,B3,20600 MFI
4,B4,29000 MFI
5,B5,96700 MFI
6,B6,2630 MFI
7,B7,123000 MFI
8,B8,177000 MFI

# Target: T2, FcγRIIa
# Assay: flow cytometry, TZM-bl FcγRIIa cells; average ratio of binding in presence and in absence of GM-CSF
# Method: as §2
row,Binder,Average RATIO FcgRIIa
1,B1,2.46 ratio
2,B2,435 ratio
3,B3,48.4 ratio
4,B4,49.5 ratio
5,B5,20 ratio
6,B6,48.7 ratio
7,B7,3.26 ratio
8,B8,226 ratio

# Target: T2, FcγRIIa
# Assay: flow cytometry, TZM-bl cells expressing FcγRIIa, immune complex with high GM-CSF
# Method: as §2
row,Binder,MFI
1,B1,9870 MFI
2,B2,566000 MFI
3,B3,65300 MFI
4,B4,122000 MFI
5,B5,269000 MFI
6,B6,55000 MFI
7,B7,19500 MFI
8,B8,468000 MFI

# Target: T1, FcγRIIb
# Assay: flow cytometry, TZM-bl FcγRIIb cells; average ratio of binding in presence and in absence of GM-CSF
# Method: as §1, §2
row,Binder,Average RATIO FcgRIIb
1,B1,3.96 ratio
2,B2,77.8 ratio
3,B3,16.6 ratio
4,B4,17.2 ratio
5,B5,7.67 ratio
6,B6,93.3 ratio
7,B7,0.81 ratio
8,B8,5.58 ratio

# Target: T2, FcγRIIa
# Assay: flow cytometry, TZM-bl cells expressing FcγRIIa, immune complex with low GM-CSF
# Method: as §1, §2
row,Binder,MFI
1,B1,4130 MFI
2,B2,9140 MFI
3,B3,1270 MFI
4,B4,7900 MFI
5,B5,7130 MFI
6,B6,8290 MFI
7,B7,24500 MFI
8,B8,30200 MFI

# Target: T1, FcγRIIb
# Assay: flow cytometry, TZM-bl cells expressing FcγRIIb, immune complex with low GM-CSF
# Method: as §1, §2
row,Binder,MFI
1,B1,136000 MFI
2,B2,398000 MFI
3,B3,175000 MFI
4,B4,344000 MFI
5,B5,181000 MFI
6,B6,57800 MFI
7,B7,137000 MFI
8,B8,393000 MFI

# Target: T3, human GM-CSF (granulocyte macrophage-colony stimulating factor) (human, UniProt P04141 18-144)
# Assay: cell-based or functional assay
# T3 sequence (P04141 18-144 limits assumed): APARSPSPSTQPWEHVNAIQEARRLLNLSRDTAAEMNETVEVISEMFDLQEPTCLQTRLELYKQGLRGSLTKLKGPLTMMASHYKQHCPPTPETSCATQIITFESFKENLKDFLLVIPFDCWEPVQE
Binder,"IC90 less stringent conditions (50 pg/ml GM-CSF, 1,000 TF-1/well)","IC90 more stringent conditions (500 pg/ml GM-CSF, 1,000 TF-1/well)","IC90 stringent conditions (50 pg/ml GM-CSF, 10,000 TF-1/well)","IC90 very stringent conditions (500 pg/ml GM-CSF, 10,000 TF-1/well)"
B1,0.265 ng/mL,3.17 ng/mL,0.281 ng/mL,2.53 ng/mL
B2,2.77 ng/mL,9.92 ng/mL,31.4 ng/mL,217 ng/mL
B3,0.681 ng/mL,4.72 ng/mL,0.963 ng/mL,6.24 ng/mL
B4,0.536 ng/mL,0.795 ng/mL,0.413 ng/mL,0.768 ng/mL
B5,0.559 ng/mL,6.21 ng/mL,1.07 ng/mL,11.2 ng/mL
B6,1.28 ng/mL,17.8 ng/mL,2.96 ng/mL,124 ng/mL
B7,9.26 ng/mL,97.5 ng/mL,90.8 ng/mL,739 ng/mL
B8,1.3 ng/mL,6.46 ng/mL,4.18 ng/mL,10.2 ng/mL

# Target: T3, human GM-CSF (granulocyte …)
# Assay: ELISA on GM-CSF
row,Binder,EC50
1,B1,33.5 ng/mL
2,B2,16.2 ng/mL
3,B3,74.3 ng/mL
4,B4,29.6 ng/mL
5,B5,48.6 ng/mL
6,B6,587 ng/mL
7,B7,32.3 ng/mL
8,B8,41.8 ng/mL

# Reference: patent US20200362026A1 (INSTITUTE FOR RESEARCH IN BIOMEDICINE, published 2020)
